For 13 sequences, protein production results are on record in a protein production outcome set (Wang et al. 2014).

This data set can be described thus: label from the status in PepcDB records.

As to “MATLTRLFIHPVKSMRGIGLTHALADVSGLAFDRIFMITEPDGTFITARQFPQMVRFTPSPVHDGLHLTAPDGSSAYVRFADFATQDAPTEVWGTHFTARIAPDAINKWLSGFFSREVQLRWVGPQMTRRVKRHNTVPLSFADGYPYLLANEASLRDLQQRCPASVKMEQFRPNLVVSGASAWEEDSWKVIRIGDVVFDVVKPCSRCIFTTVSPEKGQKHPAGEPLKTLQSFRTAQDNGDVDFGQNLIARNSGVIRVGDEVEILATAPAKIYGAAAADDTANITQQPDANVDIDWQGQAFRGNNQQVLLEQLENQGIRIPYSCRAGICGSCRVQLLEGEVTPLKKSAMGDDGTILCCSCVPKTALKLTRLEHHHHHH”, the protein production result was “failed”.
The same measure for “MATLYDAPVDELIDELAADLETRLDEPDWANYAKTGAGRELPPEQSDFWATRAASLLRKVAIDGPIGVKRLSEAYGSTTSGSNRYVVAPSTTTAGSRNIVRTILQQLEAEGLVEQQHDHGRVVTGDGRSLLDETAGDVIESLDRPELERYA”: “failed”; for “MATPPFDPSLSPLKTVAVIGLGTMGTGIAEVLARAGREVVGIDISEAAAGHAVTALEASTARAVQRERLTEQERGDILARFRTFTDLQAAADADLVIEVTPESYEIKQQVLRALDGIVRADTILATGTNALSVTRLAADSAHPERVLGLHFFNPAPAMKLVEVVSSVLTAPTAVAAVTNLALDLGKEPVAVGDRPGFVADGLLFGYLNQAAAMYEAKYASREDIDAAMKLGCGLPMGPLALLDLIGVDTARTVLEAMYAESRDRLHAPAPILKQLSEAGLTGRKSGRGFYSYDEPGSATVVRDALTPLSGGPGEQGRTVRSVGVAGSGTMASGIAEVFAKAGYEVVLAARSEEKAQTAKARIGKSLSRSVDKGRLTAEAAAETLDRITPAGSYDAFADVDLALEAVAEDLEIKQQLFATFDKVCKPGAILATTTSSLPVVACARATSRPQDVIGMHFFNPAPAMKLVEVVRTVLTGDDVHATVREVCAKIRKHPVDCGDRAGFIVNALLFPYLNNAIKMVQEHYATLDDIDAAMKLGGGYPMGPFELLDVVGLDVSLAIEKVLHREFRDPGLAPAPLLEHLVAAGCLGRKTGRGFREYAKR”: “failed”; for “MATRRTFLRGAISLTLIGSTGQLRALAHPRANTWALPIDTQAQADLTRYVDVFIGSSGHGHTFPGATLPFGMVQLSPDTDNAVWDACSGYHASNGSIMGFSHTHLSGTGIGDMLDILLMPGTGDVKLAPGPLNAPETGYRQRYDHAEEVASPGYYQVRLKDTDIVAELTATARTGLHRYHFPQHQAGHLLLDLSHAMQDNPSTPPRLRDVELSIVDTRTLLGGRRVYQWAKGRYLFFAMRLSRPFARAQLYSNDAPLTADTRQVQGVCLKAALHFPDAGEAPLLVKVGLSAVSAANALANLDAELPDFDFARVHAEAVAAWENALGRARIATDNPAQRRIFYTSLYHSLLAPTLFSDVDGRYRGMDLQVHTLPTGYHNYSTYSLWDTYRALHPLLTLVQSDRVPDLLQCLVRGAAECPDGVGIWPLQGVETGCMIGYHSAVALAEGYTKGFTGIDYAAAWPHYRKRAMQDHAHGLRYYRRLGYIPSDKVDESVSRTLEYAYDDWACAHLATAAGAHSEARVLRARSRHYRHVFNRDSGFMQPRLENGAWATPFDPRALGHLKQWHDFTECNAWQATFLNQHDVYGYMALFGGADHFAAKLDALFSALSELPPGAPPDIDGMVGQYAHGNEPSHHIAYLYVYAGQAYKTQAMVRRLLREQYHDGRDGLSGNEDCGQMSAWFVLSALGMYAVDPVSGIYVIGSPLFPYAELDVGRGRKLRILARHTSASNVYVQALRWNGSPMTRAWLRHTELAGGGTLEFEMGAQPNLDFGTHPQDLPPSFMALQPVPKHA”: “failed”.
For the sequence “MATSMTDIKGFNMISIEQEKELGNKFAVEIEKQQQPVNDPEVQRYVDKVGKRLLSGARAVEFDYVFKVVKDDSVNAFAIPGGRVYVHTGLLKAADNETELAGVLAHEINHAVARHGTRQMTQEYGYSLVLSLVLGDNPNMLAQLAGQLFGKAGMMSYSREYENQADFLGVETMYKAGYNPNGLTSFFQKLNAMDGGTQSNVARFFSTHPLTSERIQRVQAEIAKLPPQRYLTDETEFKKIKGRLKLEHHHHHH”, the protein production entry is listed as “not failed”.
With “MATTKRVLYVGGLAEEVDDKVLHAAFIPFGDITDIQIPLDYETEKHRGFAFVEFELAEDAAAAIDNMNESELFGRTIRVNLAKPMRIKE”, the protein production entry is given as “not failed”.
The same measure for “MATVAFHTLGCKVNHYETEAIWQLFKEAGYERKEFESSADVYVINTCTVTNTGDKKSRQVIRRAIRQNPDAVICVTGCYAQTSPAEIMAIPGVDIVVGTQDREKMLGYIKQYQEERQPINGVSNIMKARVFEELDVPAFTDRTRASLKIQEGCNNFCTFCIIPWARGLLRSRDPEEVIRQAQQLVDAGYKEIVLTGIHTGGYGEDMKDYNFAQLLKELDSRVKGLKRIRISSIEASQITDEVIEVLDRSDKIVRHLHIPLQSGSNSVLKRMRRKYTMEFFADRLTKLKKALPGLAVTSDVIVGFPGETEEEFMETYNFIKEHKFSELHVFPYSKRTGTPAARMDGQVDENVKNERVHKLIALSDQLAKEYASDYEGDVLEIIPEEPFTETGEGNLLVGYTDNYIKVVFEGSEDLIGQLVKVKILKAGYPYNKGQFVRVAEDDVRENIRLSS”: “failed”; for “MAVAGAVSGEPLVHWCTQQLRKTFGLDVSEEIIQYVLSIESAEEIREYVTDLLQGNEGKKGQFIEELITKWQKNDQELISDPLQQCFKKDEILDGQKSGDHLKRGRKKGRNRQEVPAFTEPDTTAEVKTPFDLAKAQENSNSVKKKTKFVNLYTREGQDRLAVLLPGRHPCDCLGQKHKLINNCLICGRIVCEQEGSGPCLFCGTLVCTHEEQDILQRDSNKSQKLLKKLMSGVENSGKVDISTKDLLPHQELRIKSGLEKAIKHKDKLLEFDRTSIRRTQVIDDESDYFASDSNQWLSKLERETLQKREEELRELRHASRLSKKVTIDFAGRKILEEENSLAEYHSRLDETIQAIANGTLNQPLTKLDRSSEEPLGVLVNPNMYQSPPQWVDHTGAASQKKAFRSSGFGLEFNSFQHQLRIQDQEFQEGFDGGWCLSVHQPWASLLVRGIKRVEGRSWYTPHRGRLWIAATAKKPSPQEVSELQATYRLLRGKDVEFPNDYPSGCLLGCVDLIDCLSQKQFKEQFPDISQESDSPFVFICKNPQEMVVKFPIKGNPKIWKLDSKIHQGAKKGLMKQNKAV”: “not failed”.
Turning to “MAVEEFNQNLNEIMKFKECNITVDTCVVIDGRITELISDGTIEKCTIIVPEAVISELEAQANKGREIGYFGIEELKKLVKVAKENEMVLEYYGERPSTGEVSLAKAGEIDAMIRKVAKDTNSILFTSDRIQYNLAIAQNINAHFLKVHEEKVDLKLV”, the protein production entry was “failed”.
The same measure for “MAVFHDEVEIEDFQYDEDSETYFYPCPCGDNFAITKEDLENGEDVATCPSCSLIIKVIYDKDQFMCGETV”: “not failed”; for “MAVGFFAQVIDGALGMAYGITATTFLLSAGATPAAASASVHIAEVFTTGFSGISHVKLGNVNKSLFLRLLLPGMIGAVLGAVLITRFDGHQLKPFISAYLLLMGLYILSKAYRHVIKRRAPRHVAKLALFGGFVDAAGGGWGPVVTSSLIGSGSDPRTTIGSVNFAEFFLTIASATSFILLAGQPDTWKMVAGLVFGGLFAAPFAALLCKKLSPRTLLVIVGTLITLISAYNIYIGLR”: “failed”; for “MAVLPPDPVFSLRSPDMGAVNSLCFQESDRLLAGTIKGSVFLWDLQTNRSALHFEVGSDPITSLHHTPDRLVTQEKGGTITMFSIGGSSYVKERSIPGNHLGFCRSALHTNTSKTNEQLLFYPCEESSIGVLHVTDAAAPTQILVPDDPQLPKLGSVTCFKPFECASQLFLLAGYESGHFLTWDISSSVILDVMELAQDATSVDYDPVTNRGIVGGPTDKLISFSYQRSSMQMQLGSELCIKNPGVNGVRIRPDQKVFASAGWDGRIRIFSWKSLRPLAVLTQHKNGGVMDLAFSSQQVAMWHAPIMAAAGMDGQISLWDLYN”: “failed”.
As for “MAVLVTGATGFIAQWVLDCLLKENYQVIGTVRSQEKGDKLHKQFGSPSKLSFEIVKDISDTEAFEPLFKKRGKEIDIVLHMASPCHFNTSDYEKDLLIPALNGTKGVLNAIKKYGDVKKVVVTSSYAAITDMVNSADGSLVFTEKDWNPATWERCQTDAVNAYCASKKFAEQAAWEFSKETGVSLTTINPVFVFGPQKFDEDVTSQLNTSNEIINGLIHSKPGDKLEPDYHSAYVDVRDVARAHLVAFQKDTTGERLGLSNGAFNCQSILDILNEKFPQLDITKGPEPGMGDTKPGAVFDNRHSKEVLAFPFISLEQCVYDTVAQVLKKEGRLLEHHHHHH”, the protein production entry is on record as “not failed”.
